This note sets out measurements from PMC5636616, “Studies on the Interaction of the Histone Demethylase KDM5B with Tricarboxylic Acid Cycle Intermediates” (Journal of Molecular Biology, 2017).

Several values for one entry are separate records, joined by “and”; a condition that tells them apart may be missing. Equal values may be shown once.

Substrate in this series: O=C(O)CCC(=O)C(=O)O
Briefly: purified protein, by the assay type. To be noted: pH 7.5, 25.0 °C.

B1: KDM5B (Homo sapiens) (protein)
chain: MEAATTLHPGPRPALPLGGPGPLGEFLPPPECPVFEPSWEEFADPFAFIHKIRPIAEQTGICKVRPPPDWQPPFACDVDKLHFTPRIQRLNELEAQTRVKLNFLDQIAKYWELQGSTLKIPHVERKILDLFQLNKLVAEEGGFAVVCKDRKWTKIATKMGFAPGKAVGSHIRGHYERILNPYNLFLSGDSLRCLQKPNLTTDTKDKEYKPHDIPQRQSVQPSETCPPARRAKRMRAEAMNIKIEPEETTEARTHNLRRRMGCPTPKCENEKEMKSSIKQEPIERKDYIVENEKEKPKSRSKKATNAVDLYVCLLCGSGNDEDRLLLCDGCDDSYHTFCLIPPLHDVPKGDWRCPKCLAQECSKPQEAFGFEQAARDYTLRTFGEMADAFKSDYFNMPVHMVPTELVEKEFWRLVSTIEEDVTVEYGADIASKEFGSGFPVRDGKIKLSPEEEEYLDSGWNLNNMPVMEQSVLAHITADICGMKLPWLYVGMCFSSFCWHIEDHWSYSINYLHWGEPKTWYGVPGYAAEQLENVMKKLAPELFVSQPDLLHQLVTIMNPNTLMTHEVPVYRTNQCAGEFVITFPRAYHSGFNQGFNFAEAVNFCTVDWLPLGRQCVEHYRLLHRYCVFSHDEMICKMASKADVLDVVVASTVQKDMAIMIEDEKALRETVRKLGVIDSERMDFELLPDDERQCVKCKTTCFMSAISCSCKPGLLVCLHHVKELCSCPPYKYKLRYRYTLDDLYPMMNALKLRAESYNEWALNVNEALEAKINKKKSLVSFKALIEESEMKKFPDNDLLRHLRLVTQDAEKCASVAQQLLNGKR
Usually Km stands for the concentration of substrate that gives half-maximal velocity. Consider B1, for which the Km by setting is: (other: 0 μM oxaloacetate) 5.0 µM; (other: 0 μM succinate) 3.4 µM; (other: KDM5B(1–822), no inhibitor, 5 μM H3K4me2(1–21)) 3 µM and 2.6 ± 0.6 µM; (other: Table S1, succinate data set, competitive inhibition model) 3.01 µM; (other: Table S2, oxaloacetate data set, competitive inhibition model) 5.91 µM.
